{"source": "patent US20140287419A1", "about": "“Compositions Having Dicamba Decarboxylase Activity and Methods of Use” (priority 2013, published 2014)", "molecules": {"B1": {"name": "2 (protein, listed as Serratia sp.)", "chain": "MAKIICLEEHTLDKALVMASMPAALEQAPFLSDWGKTVTDGNLPDRSRPQIEKNDLINIKGADIGRGRLDDMDVAGITMQVLSVGGFPHLISAAEGVDLNRAANDRLADAVNAHPDRFAAFATLPWAQPDSAEKELERAVKELGFKGALLNGRPSTHFLDHPDYDGLLARFNALGVPLYLHPGLPVRSVQQAYYGGFSDEVTARLSMFGWGWHHEAGIHLLRLILSGAFDKYPNLQVISGHWGEMLPFWLQRLDDSLPQAATGLRRTIAQTFKEQVYVTPSGMLTLPHFQFIYALLGAERIIFSVDYPYQTLDGVKAFIQSLPVPEEAKEAIAFRNAERLLGLTS"}, "B2": {"name": "100 (protein, listed as Reinekea blandensis)", "chain": "MAIIDCHGHYTTTPKGVEDYRNAQKAAVAKDPSFKGEKGQVVVSDDEIRESIENNQLKMQRERGTDLTIFSPRASWMGHHIGNEYTSQFWTEHQNDLIRRVCDLFPKNFAPVAQLPQSPGVDPAKSVPEIVRTVEQMGFIGINLNPDPSGGYWKDTSLADRAFYPIYEKMVEYDIPAMIHVSAACNDCFHTTGSHYLGADTTGFQQLIMSDVFKDFPSLKIIIPHGGGAVPYHWGRFRGLMQDQGYAPLEESALKNIYFDTCVYHQRGIDLLLDIVPTQNILFASEMIGAVRGIDPETGHNFDDTKRYIDNNTALNAEEKAMIFEGNARRVFSRLKTD"}, "B3": {"name": "27 (protein, listed as Aspergillus oryzae)", "chain": "MALGKIALEEAFALPRFEEKTRWWASLFSTDAETHVKEITDINKIRIEHADKHGVGYQILSYTAPGVQDIWDPVEAQALAVEINDYIAEQVRVNPDRFGAFATLSMHNPKEAADELRRCVEKYGFKGALVNDTQRAGPDGDDMIFYDNADWDIFWQTCTELDVPFYMHPRNPTGTIYEKLWADRKWLVGPPLSFAHGVSLHVLGMVTNGVFDRHPKLQIIMGHLGEHVPFDMWRINHWFEDRKKLLGLAETCKKTIRDYFAENIWITTSGHFSTTTLNFCMAEVGSDRILFSIDYPFETFSDACEWFDNAELNGTDRLKIGRENAKKLFKLDSYKDSSA"}, "B4": {"name": "30 (protein)", "chain": "MARGKIALEEHVSTPENNRLWDSTGEANRNGSEYMQDVERRLLDRSIQLEEMAQRNIDHVILSLTSPGAQSILDKAKAVSFARDTNDFIVDNYVKPNPDKFSAFATLALQNPEAAAEELERAVKKLGMKGALINGYTNVKDSEHGLYLDDESMLVFWDKVNELNVPVYLHPREPLEGPARGIYTGYESLIGSAWGFAQETAVHAIRLMMSGLFDRYPNLNLVLGHLGEGLVHMLPRTQHRLYRQRFGCGLGKAEKPLMHYLQNNFIVTTSGHFNTHSLNNAIEVMGADRVMFSVDYPYEDIHQACDWFDPLEMDEGLKEKIAWGNASRVFNIK", "modifications": "Enterobacter aerogenes"}, "B5": {"name": "41 (protein, listed as Polaromonas sp.)", "chain": "MANGKIALEEHFATEETLMDSAGFVPDKDWPELRSRLLDIQDRRVRLMDEHGIETMILSLNAPAVQAIADSTRANETARRANDFLAEQVAKQPTRFRGFAALPMQDPELAARELERCVKELGFVGALVNGFSQDNRSAVPLYYDMAQYWPFWETVQALDVPFYLHPRNPLPSDARIYDGHAWLLGPTWAFGQETAVHALRLMGSGLFDKYPALKIILGHMGEGLPYSMWRIDHRNAWIKTTPKYPAKRKIVDYFNENFYLTTSGNFRTQTLIDAILEIGADRILFSTDWPFENIDHAADWFENTSISEADRKKIGWGNAQNLFKLNR"}, "B6": {"name": "29 (protein, listed as Pseudovibrio sp.)", "chain": "MAGRRDFLRKSVAAGVGLTAAAQLSAGGAQATVPDTSNIPLITLEEHFTTPELQSKNTSGDKRLFSGGGSRPELLDVGAGRIADMDEAGIDIQVLSTVTPGASKITGAEGVEFTRKFNTWIAEEVIAAYPNRFRAFATLPLSSPEAAADELERSVREYGFVGTMTYGPIDGKFLDHADYAPLLARAEALGVPIYIHPNWPSPTAMQAYYDGLGDDLTSRILSGPGYGWHQEIAVQCLRLIVGGVFDRFPNLQIVVGHMGEGLPFYYWRVGEDLDRIAQKRLQKPVQQYFHDNLWITTSAFFRDELLNLALATMGEDRVMFSVDYPMASAKVGADWLRAADIPLATKEKIGSKNAMKLLGIDKI"}, "B7": {"name": "28 (protein, listed as Sphingomonas paucimobilis)", "chain": "MARLIATEEAVTFQPVVDALRAHSRTDDASLDMILVRDVYGDEPARPAMIGRLSDVTGERLAEMDSNGVDMHLLSLTAPGVQMFDAETGTRLARIANDLMAQTVAANPTRFAGLGTFAPQDPASAAREIERVATQLRLNGLVINSHTNDLYYDDPFFHPVFEAIEASGLALYIHPRAPSKQIDRAFRDYGMNSAIWGYGIETSTNAVRMILSGLFDRFPRLKIVLGHMGEAIPFWLWRLDYMHGNATTFGGAPKLKLKPSEYFRRNFAITTSGVESHAALRYSIEVLGPENVMWAIDYPYQPMAPAVQFIRTAPIPEDVKAMVAGGNAARIFRIT"}, "B8": {"name": "95 (protein, listed as Pseudomonas fluorescens)", "chain": "MAKKPRIDMHSHFFPRISEQEAAKFDANHAPWLQVSAKGDTGSIMMGKNNFRPVYQALWDPAFRIEEMDAQGVDVQVTCATPVMFGYTWEANKAAQWAERMNDFALEFAAHNPQRIKVLAQVPLQDLDLACKEASRAVAAGHLGIQIGNHLGDKDLDDATLEAFLTHCANEDIPILVHPWDMMGGQRMKKWMLPWLVAMPAETQLAILSLILSGAFERIPKSLKICFGHGGGSFAFLLGRVDNAWRHRDIVREDCPRPPSEYVDRFFVDSAVFNPGALELLVSVMGEDRVMLGSDYPFPLGEQKIGGLVLSSNLGESAKDKIISGNASKFFNINV"}, "B9": {"name": "32 (protein)", "chain": "MARIIAIEEHFLDLDIARASRPEAERLSPAFAAAYGAGQGYNYSPAPEVLLDLEEGRVADMDAHGISMQVLSSLSTQQLPADVAVELVRKVNDRAAAAVAARPDRFAAFAALPTTVPEAAADELDRAVGELGFVGSMINGRTGDAFLDAPRFDAVLRRSAELRVPVYLHPGVPPVETSRSNYEGGLDPIVTARLQTSAWGWHVETGIHFLHLVLAGVFDRYPDLQVILGHWGEMVPFFLERIEEALPQQITHLDRPVGAYFRENAHITPSGMFSQAQLQFCVETVGIERIMFSVDYPFLGNDGAEAFLRQANLPPLATEKIAHLNAERLLALPS", "modifications": "Streptomyces violaceusniger"}, "B10": {"name": "31 (protein, listed as Agrobacterium sp.)", "chain": "MAQGKVALEEHFAIPETLQDSAGFVPGDYWKELQHRLLDIQDTRLKLMDAHGIETMILSLNAPAVQAIPDKTKAIEIARRANDVLAEECAKRPDRFLAFAALPLQDPDAATEELQRCVNDLGFVGALVNGFSQEGDGQTPLYYDLPQYRPFWGEVEKLDVPFYLHPRNPLPQDSRIYDGHPWLLGPTWAFAQETAVHALRLMASGLFDEHPRLNIILGHMGEGLPYMMWRIDHRNAWVKLPPRYPAKRRFMDYFNENFHITTSGNFRTQTLIDAILEIGADRILFSTDWPFENIDHASDWFNATSIAEADRVKIGRTNARRLFKLDGA"}, "B11": {"name": "SEQ ID NO:100: 4-Oxalomesaconate hydratase, Reinekea blandensis MED297 (protein, listed as Reinekea blandensis)", "chain": "B2 chain"}, "B12": {"name": "SEQ ID NO:95: Alpha-Amino-Beta-Carboxymuconate-Epsilon-Semialdehyde-Decarboxylase, Pseudomonas fluorescens (protein, listed as Pseudomonas fluorescens)", "chain": "B8 chain"}, "B13": {"name": "SEQ ID NO: 116 (protein)", "chain": "MAQGKVALEEHFAIPETLQDAAGFVPGDYWKELQHRLLDIQDRRVRLMDEHGIETMILSLNAPAVQAIADSTRANETARRANDFLAEQVAKQPTRFRGFAALPMQDPELAARELERCVKELGFVGALVNGFSQDNRSAVPLYYDMAQYWPFWETVQALDVPFYLHPRNPLPSDARIYDGHAWLLGPTWAFGQETAVHALRLMGSGLFDKYPALKIILGHMGEGLPYSMWRIDHRNAWIKTTPKYPAKRKIVDYFNENFYLTTSGNFRTQTLIDAILEIGADRILFSTDWPFENIDHAADWFENTSISEADRKKIGWGNAQNLFKLNR", "modifications": "Dicamba decarboxylase variant clone DC.30.007"}}, "note": "Entries after “also recorded” stand apart in the source; their conditions may differ."}
{"experiment": "14C assay with IPTG-induced recombinant E. coli cells (14CO2 capture from [14C]-carboxyl-labeled dicamba)", "conditions": "IPTG-induced recombinant E. coli cells; [14C]-carboxyl-labeled dicamba; 14CO2 capture"}
{"molecule": "B1", "Dicamba Decarboxylase Activity": "High"}
{"molecule": "B2", "Dicamba Decarboxylase Activity": "No"}
{"molecule": "B3", "Dicamba Decarboxylase Activity": "No"}
{"molecule": "B4", "Dicamba Decarboxylase Activity": "High"}
{"molecule": "B5", "Dicamba Decarboxylase Activity": "High"}
{"molecule": "B6", "Dicamba Decarboxylase Activity": "No"}
{"molecule": "B7", "Dicamba Decarboxylase Activity": "High"}
{"molecule": "B8", "Dicamba Decarboxylase Activity": "No"}
{"molecule": "B9", "Dicamba Decarboxylase Activity": "High"}
{"molecule": "B10", "Dicamba Decarboxylase Activity": "High"}
{"experiment": "14C assay with IPTG-induced recombinant E. coli cells (14CO2 capture from [14C]-carboxyl-labeled dicamba)", "conditions": "dicamba decarboxylation activity of the protein of the given SEQ ID NO"}
{"molecule": "B1", "Enzymatic Detection level": "High"}
{"molecule": "B2", "Enzymatic Detection level": "No"}
{"molecule": "B3", "Enzymatic Detection level": "No"}
{"molecule": "B4", "Enzymatic Detection level": "High"}
{"molecule": "B5", "Enzymatic Detection level": "High"}
{"molecule": "B6", "Enzymatic Detection level": "No"}
{"molecule": "B7", "Enzymatic Detection level": "High"}
{"molecule": "B8", "Enzymatic Detection level": "No"}
{"molecule": "B9", "Enzymatic Detection level": "High"}
{"molecule": "B10", "Enzymatic Detection level": "High"}
{"experiment": "Dicamba decarboxylation activity of computationally designed protein variants", "conditions": "Table 4, variants designed to introduce activity"}
{"molecule": "B2", "Dicamba Decarboxylation activity": "No"}
{"molecule": "B8", "Dicamba Decarboxylation activity": "No"}
{"experiment": "Dicamba decarboxylation activity of computationally designed protein variants", "conditions": "Table 5, designed variants with improved activity"}
{"molecule": "B5", "Dicamba Decarboxylation activity": "Yes"}
{"experiment": "Dicamba decarboxylation activity of computationally designed protein variants", "conditions": "native protein or designed variant versus parent"}
{"molecule": "B11", "Dicamba Decarboxylase Activity": "Neither of the native proteins have dicamba decarboxylase activity"}
{"molecule": "B12", "Dicamba Decarboxylase Activity": "not active for dicamba decarboxylation; also recorded: Neither of the native proteins have dicamba decarboxylase activity"}
{"molecule": "B13", "Dicamba Decarboxylase Activity": "improved dicamba decarboxylase activity"}
{"experiment": "Dicamba decarboxylation activity of computationally designed protein variants", "conditions": "parent SEQ ID NO:1 or SEQ ID NO:41 listed as 100", "units": {"Percent Activity Improvement Over Parent (%)": "%"}}
{"molecule": "B5", "Percent Activity Improvement Over Parent (%)": 100}
